# According to the RNAGym collection of RNA variant scans (doi:10.1093/molbev/msab373):
# B1: Azoarcus group I ribozyme (parent)
# chain: GUGCCUUGCGCCGGGAAACCACGCAAGGGAUGGUGUCAAAUUCGGCGAAACCUAAGCGCCCGCCCGGGCGUAUGGCAACGCCGAGCCAAGCUUCGGCGCCUGCGCCGAUGAAGGUGUAGAGACUAGACGGCACCCACCUAAGGCAAACGCUAUGGUGAAGGCAUAGUCCAGGGAGUGGCGAAAGUCACACAAACCGG
# Variants of: B1
# Assay: reverse-splicing fitness (ratio to wild type); higher = more active; in vitro selection; Mg2+ level not given
# Outline: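 An in vitro group I ribozyme library with randomized positions was T7-transcribed and gel-purified. In triplicate, 10 pmol RNA in EPPS pH 7.5 was reacted with 50 pmoles of a 30-nt RNA substrate for 1 h at 37 °C across several added MgCl2 levels (1–48 mM), then stopped with EDTA. Products were reverse transcribed from a substrate-complementary primer, PCR-amplified and sequenced (HiSeq 4000). Fitness is a variant's read proportion after selection over that before, normalised to wild type.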
row,Variant,reverse-splicing fitness
1,GUGCCUUGCGCCGGGAAACCACGCAAGGGAUGGUGUCAAAUUCGGCGAAACCUAAGCGCCCGCCCGGGCGUAUGGCAACGCGGAGCCAAGCUUCGGCGCCUGCGCCGAUGUAGGUGUAGGGACUAGACGGCACCCACCUAAGGCCAACGGUAUGGUGAAGGCAUAGUCCAGGGAGCGGCGAAAGUCACACAAACCGG [C82G A111U A120G A145C C150G U176C],0.0105
2,GUGCCUUGCGCCGGGAAACCACGCAAGGGAUGGUGUCAAAUUCGGCGAAACCUAAGCGCCCGCCCGGGCGUAUGGCAACGCGGAGCCAAGCUUCGGCGCCUGCGCCGAUGUAGGUGUAGGGACUAGACGGCACCCACCUAAGGCCAACGGUAUGGUGAAGGCAUAGUCCAGGGAGGGGCGAAAGUCACACAAACCGG [C82G A111U A120G A145C C150G U176G],0.00342
3,GUGCCUUGCGCCGGGAAACCACGCAAGGGAUGGUGUCAAAUUCGGCGAAACCUAAGCGCCCGCCCGGGCGUAUGGCAACGCGGAGCCAAGCUUCGGCGCCUGCGCCGAUGUAGGUGUAGGGACUAGACGGCACCCACCUAAGGCCAACGUUAUGGUGAAGGCAUAGUCCAGGGAGUGGCGAAAGUCACACAAACCGG [C82G A111U A120G A145C C150U],0.00849
4,GUGCCUUGCGCCGGGAAACCACGCAAGGGAUGGUGUCAAAUUCGGCGAAACCUAAGCGCCCGCCCGGGCGUAUGGCAACGCGGAGCCAAGCUUCGGCGCCUGCGCCGAUGUAGGUGUAGGGACUAGACGGCACCCACCUAAGGCCAACGUUAUGGUGAAGGCAUAGUCAAGGGAGUGGCGAAAGUCACACAAACCGG [C82G A111U A120G A145C C150U C169A],0.00886
5,GUGCCUUGCGCCGGGAAACCACGCAAGGGAUGGUGUCAAAUUCGGCGAAACCUAAGCGCCCGCCCGGGCGUAUGGCAACGCGGAGCCAAGCUUCGGCGCCUGCGCCGAUGUAGGUGUAGGGACUAGACGGCACCCACCUAAGGCCAACGUUAUGGUGAAGGCAUAGUCAAGGGAGAGGCGAAAGUCACACAAACCGG [C82G A111U A120G A145C C150U C169A U176A],0.0138
6,GUGCCUUGCGCCGGGAAACCACGCAAGGGAUGGUGUCAAAUUCGGCGAAACCUAAGCGCCCGCCCGGGCGUAUGGCAACGCGGAGCCAAGCUUCGGCGCCUGCGCCGAUGUAGGUGUAGGGACUAGACGGCACCCACCUAAGGCCAACGUUAUGGUGAAGGCAUAGUCAAGGGAGCGGCGAAAGUCACACAAACCGG [C82G A111U A120G A145C C150U C169A U176C],0.0083
7,GUGCCUUGCGCCGGGAAACCACGCAAGGGAUGGUGUCAAAUUCGGCGAAACCUAAGCGCCCGCCCGGGCGUAUGGCAACGCGGAGCCAAGCUUCGGCGCCUGCGCCGAUGUAGGUGUAGGGACUAGACGGCACCCACCUAAGGCCAACGUUAUGGUGAAGGCAUAGUCAAGGGAGGGGCGAAAGUCACACAAACCGG [C82G A111U A120G A145C C150U C169A U176G],0.00544
8,GUGCCUUGCGCCGGGAAACCACGCAAGGGAUGGUGUCAAAUUCGGCGAAACCUAAGCGCCCGCCCGGGCGUAUGGCAACGCGGAGCCAAGCUUCGGCGCCUGCGCCGAUGUAGGUGUAGGGACUAGACGGCACCCACCUAAGGCCAACGUUAUGGUGAAGGCAUAGUCGAGGGAGUGGCGAAAGUCACACAAACCGG [C82G A111U A120G A145C C150U C169G],0.00915
9,GUGCCUUGCGCCGGGAAACCACGCAAGGGAUGGUGUCAAAUUCGGCGAAACCUAAGCGCCCGCCCGGGCGUAUGGCAACGCGGAGCCAAGCUUCGGCGCCUGCGCCGAUGUAGGUGUAGGGACUAGACGGCACCCACCUAAGGCCAACGUUAUGGUGAAGGCAUAGUCGAGGGAGAGGCGAAAGUCACACAAACCGG [C82G A111U A120G A145C C150U C169G U176A],0.023
10,GUGCCUUGCGCCGGGAAACCACGCAAGGGAUGGUGUCAAAUUCGGCGAAACCUAAGCGCCCGCCCGGGCGUAUGGCAACGCGGAGCCAAGCUUCGGCGCCUGCGCCGAUGUAGGUGUAGGGACUAGACGGCACCCACCUAAGGCCAACGUUAUGGUGAAGGCAUAGUCGAGGGAGCGGCGAAAGUCACACAAACCGG [C82G A111U A120G A145C C150U C169G U176C],0.0136
11,GUGCCUUGCGCCGGGAAACCACGCAAGGGAUGGUGUCAAAUUCGGCGAAACCUAAGCGCCCGCCCGGGCGUAUGGCAACGCGGAGCCAAGCUUCGGCGCCUGCGCCGAUGUAGGUGUAGGGACUAGACGGCACCCACCUAAGGCCAACGUUAUGGUGAAGGCAUAGUCGAGGGAGGGGCGAAAGUCACACAAACCGG [C82G A111U A120G A145C C150U C169G U176G],0.00518
12,GUGCCUUGCGCCGGGAAACCACGCAAGGGAUGGUGUCAAAUUCGGCGAAACCUAAGCGCCCGCCCGGGCGUAUGGCAACGCGGAGCCAAGCUUCGGCGCCUGCGCCGAUGUAGGUGUAGGGACUAGACGGCACCCACCUAAGGCCAACGUUAUGGUGAAGGCAUAGUCUAGGGAGUGGCGAAAGUCACACAAACCGG [C82G A111U A120G A145C C150U C169U],0.00738
13,GUGCCUUGCGCCGGGAAACCACGCAAGGGAUGGUGUCAAAUUCGGCGAAACCUAAGCGCCCGCCCGGGCGUAUGGCAACGCGGAGCCAAGCUUCGGCGCCUGCGCCGAUGUAGGUGUAGGGACUAGACGGCACCCACCUAAGGCCAACGUUAUGGUGAAGGCAUAGUCUAGGGAGAGGCGAAAGUCACACAAACCGG [C82G A111U A120G A145C C150U C169U U176A],0.019
14,GUGCCUUGCGCCGGGAAACCACGCAAGGGAUGGUGUCAAAUUCGGCGAAACCUAAGCGCCCGCCCGGGCGUAUGGCAACGCGGAGCCAAGCUUCGGCGCCUGCGCCGAUGUAGGUGUAGGGACUAGACGGCACCCACCUAAGGCCAACGUUAUGGUGAAGGCAUAGUCUAGGGAGCGGCGAAAGUCACACAAACCGG [C82G A111U A120G A145C C150U C169U U176C],0.013
15,GUGCCUUGCGCCGGGAAACCACGCAAGGGAUGGUGUCAAAUUCGGCGAAACCUAAGCGCCCGCCCGGGCGUAUGGCAACGCGGAGCCAAGCUUCGGCGCCUGCGCCGAUGUAGGUGUAGGGACUAGACGGCACCCACCUAAGGCCAACGUUAUGGUGAAGGCAUAGUCUAGGGAGGGGCGAAAGUCACACAAACCGG [C82G A111U A120G A145C C150U C169U U176G],0.00513
